Experiments:
[1] = target: T1, mutated human CRTH2 with amino acid substitution (Homo sapiens, UniProt Q9Y5Y4, R195A); assay: Epitope analysis using CHO-S cells which express mutated human CRTH2 with amino acid substitution; assay type: binding; conditions: mutant R195A; antibody 10 μg/mL; relative to wild-type = 100%
T1 construct: inserting genes encoding various mutants with amino acid substitution obtained by deleting termination codons; expressed in transfected cells; host or cells: CHO-S cells (Lifetechnologies), transient (phmAG1-MNLinker vector)
T1 sequence (Q9Y5Y4 1-395 R195A): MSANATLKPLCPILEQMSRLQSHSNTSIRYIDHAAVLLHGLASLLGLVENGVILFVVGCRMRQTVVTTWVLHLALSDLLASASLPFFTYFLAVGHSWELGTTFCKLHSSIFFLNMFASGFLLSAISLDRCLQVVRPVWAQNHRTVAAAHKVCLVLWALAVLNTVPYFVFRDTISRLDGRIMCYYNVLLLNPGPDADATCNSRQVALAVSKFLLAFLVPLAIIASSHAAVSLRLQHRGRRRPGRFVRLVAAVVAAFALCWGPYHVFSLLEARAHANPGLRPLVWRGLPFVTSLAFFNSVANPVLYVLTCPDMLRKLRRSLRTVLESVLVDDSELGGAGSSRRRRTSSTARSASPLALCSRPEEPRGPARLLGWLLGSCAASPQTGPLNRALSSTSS
Procedure, shortened: (§1)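 CHO-S cells transiently expressing alanine-substituted human CRTH2 extracellular mutants, C-terminally Azami-Green tagged, 24 h post-transfection. Antibodies at 10 μg/mL, 4 °C 1 h, then Alexa647 anti-IgG secondary 4 °C 1 h; flow cytometry on Azami-Green-positive cells. Reactivity = Alexa647 intensity divided by Azami-Green intensity.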

[2] = target: T2, mutated human CRTH2 with amino acid substitution (Homo sapiens, UniProt Q9Y5Y4, D171A/I173A/T172A); assay: as above; assay type: binding; conditions: mutant D171A, T172A, and I173A; antibody 10 μg/mL; relative to wild-type = 100%
T2 construct: inserting genes encoding various mutants with amino acid substitution obtained by deleting termination codons; expressed in transfected cells; host or cells: CHO-S cells (Lifetechnologies), transient (phmAG1-MNLinker vector)
T2 sequence (Q9Y5Y4 1-395 D171A/T172A/I173A): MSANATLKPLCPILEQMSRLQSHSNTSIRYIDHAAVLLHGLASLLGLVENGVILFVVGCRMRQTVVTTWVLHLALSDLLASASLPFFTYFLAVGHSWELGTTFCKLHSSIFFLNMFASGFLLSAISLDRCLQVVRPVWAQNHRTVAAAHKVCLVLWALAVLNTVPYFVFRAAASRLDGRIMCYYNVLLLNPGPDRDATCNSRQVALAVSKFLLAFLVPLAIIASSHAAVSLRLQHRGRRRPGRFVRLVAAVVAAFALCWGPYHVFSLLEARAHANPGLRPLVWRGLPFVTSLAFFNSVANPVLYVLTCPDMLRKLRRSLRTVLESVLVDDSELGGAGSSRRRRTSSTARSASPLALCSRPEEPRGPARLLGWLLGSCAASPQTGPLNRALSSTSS
Procedure, shortened: as §1

B1: LV0HV1: humanized Lym2 antibody, VL LV0 (SEQ ID NO: 33), VH HV1 (SEQ ID NO: 51) (antibody, V domains shown)
VH: EVQLVESGGGVVQPGRSLRLSCAASGFTFSNYYMAWVRQAPGKGLEWVATISYDGSSTYYRDSVKGRFTISRDNAKNSLYLQMNSLRAEDTATYYCARHRGYYYSGAGYFDYWGQGTMVTVSS
VL: DIVMTQTPLSLPVTPGESASISCRSSQSLEYSDGYTYLEWYLQKPGQSPQVLIYGVSNRFSGVPDRFSGSGSGTDFTLKISRVEAEDVGVYYCFQATHDPLTFGQGTKLEIK
With B1 the “reactivity against cells expressing mutated human CRTH2” value [1] was “lost” and the “reactivity against cells expressing mutated human CRTH2” value [2] was “greatly decreased”.

Source: patent US10100120B2, “Antibody which specifically binds to human CRTH2” (KYOWA HAKKO KIRIN CO., LTD, priority 2015, dated 2018)
